Test results: patent US20260242495A1 (PROMETHEUS BIOSCIENCES, published 2026)
“And” between values parts separate entries of the source, which are not always exact repeats. Equal values may be shown once.

Target: T1, cynomolgus monkey TL1A (cynomolgus monkey, UniProt G7PRK8 72-251)
T1 sequence: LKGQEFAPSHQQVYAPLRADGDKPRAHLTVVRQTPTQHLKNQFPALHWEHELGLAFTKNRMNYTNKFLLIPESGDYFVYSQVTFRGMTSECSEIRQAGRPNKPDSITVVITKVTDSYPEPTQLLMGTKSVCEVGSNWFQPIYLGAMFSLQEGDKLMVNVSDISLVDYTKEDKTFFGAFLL
Experiment: cell-based or functional assay

IC50 of inhibition of IFN-γ release in monkey whole blood stimulated with immune complex, IL-12 and IL-18: 1.54 nM and 289 ng/mL
B1: anti-TL1A antibody A219 (antibody, V domains shown)
VH: QVQLVQSGAEVKKPGASVKVSCKASGFDIQDTYMHWVKQRPGQGLEWMGRIDPASGHTKYDPKFQVRVTITRDTSTSTVYLELSSLRSEDTAVYYCARSGGLPDVWGQGTTVTVSS
VL: EIVLTQSPGTLSLSPGERATLSCRASSSVSYMYWYQQKPGQAPRPLIYATSNLASGIPDRFSGSGSGTDFTLTISRLEPEDFAVYYCQQWEGNPRTFGGGTKLEIK
